Here are results for one substance from paper PMC9061257.

One may read the stoichiometry N as a count of units in the complex or per binding partner.

The assay has as its target pseudouridine kinase from Escherichia coli strain B (EcPUKI), wildtype (E. coli strain B) (UniProt P30235). The assay can be described thus: SEC. (SEC sorts molecules by how far they enter the pores of the column.)

“pseudouridine kinase from Escherichia coli strain B (EcPUKI), wildtype (from UniProt P30235 1-313) (enzyme)” registered a stoichiometry N of 2.
